The values below are quoted from earlier work in publication PMC13351906.

The data set addresses IL-6 receptor (Homo sapiens) (UniProt P08887). Nature of the data set: 125I-rhIL-6 radioligand binding.
Chain of UniProt P08887 (P08887 20-365): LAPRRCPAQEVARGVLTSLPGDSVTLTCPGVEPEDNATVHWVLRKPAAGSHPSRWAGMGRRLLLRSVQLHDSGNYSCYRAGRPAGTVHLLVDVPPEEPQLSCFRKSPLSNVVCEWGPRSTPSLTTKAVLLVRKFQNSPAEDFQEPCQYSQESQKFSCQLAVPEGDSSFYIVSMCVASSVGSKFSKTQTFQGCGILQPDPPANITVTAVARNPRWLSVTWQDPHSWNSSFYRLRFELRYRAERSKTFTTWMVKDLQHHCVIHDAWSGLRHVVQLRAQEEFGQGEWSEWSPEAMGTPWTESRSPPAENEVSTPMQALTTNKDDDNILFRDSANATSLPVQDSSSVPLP

Chain of IL-6 (P05231 30-212): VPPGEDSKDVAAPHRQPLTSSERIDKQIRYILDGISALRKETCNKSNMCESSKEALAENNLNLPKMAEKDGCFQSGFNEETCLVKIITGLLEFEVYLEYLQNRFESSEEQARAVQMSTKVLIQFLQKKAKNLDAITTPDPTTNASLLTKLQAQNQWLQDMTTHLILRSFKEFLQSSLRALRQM

As a reminder, the Kd is the equilibrium constant for the complex coming apart. With IL-6 (from UniProt P05231), the Kd was 0.44 nM.
